Experimental data: US11697815B2, “Regulation of gene expression through aptamer-modulated polyadenylation” (MeiraGTx UK II Limited, priority 2016, dated 2023)
Where a chain is given by its changes, count along the chain named.

Experiments:
Format in all cases: cell-based
[1] = tested on: firefly luciferase expression; assay: Firefly luciferase assay of HEK 293 cells transfected with U1_Gua riboswitch constructs, with or without guanine; conditions: for fold increase of luciferase activity upon guanine treatment: 500 μM guanine
From the text: Plasmid constructs: The EGFP gene in pEGFP-C1 vector was replaced with firefly luciferase gene coding sequence to generate a pFLuc vector that contains an SV40 early polyadenylation signal sequence. Oligos containing either wild type or mutant U1 binding site from the 5′ splice site of human DHFR exon 2 and xpt-guanine aptamer sequence followed by the complementary sequence of the last 7 nt of the U1 site sequence were synthesized (IDT) and cloned into the pFLuc vector using the Gibson cloning strategy and kit (NEB).
Transfection and aptamer ligand treatment: HEK 293 cells were transfected as described in Example 1. Four hours after transfection, the media was aspirated, and new media with or without 500 μM guanine was added.
Firefly luciferase assay of cultured cells: Twenty-four hours after the media change, the plates were removed from the incubator, and equilibrated to RT for several minutes on a lab bench, then aspirated. Glo-lysis buffer (Promega, 100 uL, RT) was added, and the plates allowed to remain at RT for at least 5 minutes. Then, the well contents were mixed by 50 uL trituration, and 20 uL of each sample was mixed with 20 μL of bright-glo reagent (Promega) that had been diluted to 10% in glo-lysis buffer. The 96 wells were spaced on an opaque white 384-well plate. Following a 5 min incubation at RT, luminescence was measured using a Tecan machine with 500 mSec read time. The luciferase activity was expressed as mean relative light unit (RLU)±S.D.
Plasmid constructs: SV40 early polyadenylation sequence was replaced with human beta globin polyA sequence in pFLuc vector to generate pFLuc_HBGPA. Oligos containing either wild type or mutant U1 binding site from 5′ ss of human DHFR exon 2 and xpt-guanine aptamer sequence followed by the complementary sequence of last 7 nt of U1 site sequence were synthesized (IDT) and cloned into pFLuc_HBGPA vector using Gibson cloning strategy and kit (NEB).
Transfection and luciferase assay were as described in Example 7.

[2] = tested on: Renilla luciferase expression; assay: Renilla luciferase assay of HEK 293 cells transfected with U1_theo riboswitch constructs, with or without theophylline
Description: Transfection: 3.5×10^4 HEK 293 cells were plated in a 96-well flat bottom plate the day before transfection. Plasmid DNA (500 ng) was added to a tube or a 96-well U-bottom plate. Separately, TransIT-293 reagent (Mirus; 1.4 μl) was added to 50 μl Opti-mem I media (Life Technologies), and allowed to sit for 5 minutes at room temperature (“RT”). Then, 50 μl of this diluted transfection reagent was added to the DNA, mixed, and incubated at RT for 20 min. Finally, 7 μl of this solution was added to a well of cells in the 96-well plate.
Renilla luciferase assay of cultured cells: 24 hours after the media change, plates were removed from the incubator, and equilibrated to RT for several minutes on a lab bench, and the media aspirated. Glo-lysis buffer (Promega, 100 μl, RT) was added, and the plates allowed to remain at room temp for at least 5 minutes. Then, the well contents were mixed by 50 μl trituration, and 20 μl of each well was mixed with 20 μl of Renilla-glo reagent in a solid-white 384-well plate. Ten minutes later, luminescence was measured using a Tecan machine with 500 msec read time. The luciferase activity was expressed as mean relative light unit (RLU)±SD.
Oligonucleotides containing either the full length of sequences of the stem from the stem-loop structure and theophylline aptamer or the truncated sequences of the stem, were synthesized (IDT) and cloned into pRL-SV40 vector using the Gibson Assembly Cloning Kit (NEB). Construct sequences were verified by DNA sequencing (Genewiz).
Transfection and aptamer ligand treatment: HEK 293 cells were transfected as described in Example 1. Four hours after transfection, the media was aspirated, and new media with or without 3 mM theophylline was added. A Renilla luciferase assay was performed 20 to 24 hours after theophylline treatment as described in Example 1. The induction fold was expressed as the quotient of luciferase activity obtained in the presence of aptamer ligand divided by the value obtained in the absence of the aptamer ligand.
Oligos containing 4 copies of the U1_theo_8_1 sequence in tandem were synthesized (IDT) and cloned using Gibson strategy and cloning kit (NEB). HEK 293 cells were transfected and Renilla luciferase assay was performed as described in Example 4.

[3] = tested on: Renilla luciferase expression; assay: as above; remark: listed apart in the source

B1: U1_Gua_2: U1 site linked with xpt-guanine aptamer, 110 nt upstream of SV40 early poly(A) in pFLuc (nucleic acid)
DNA: TCATAAAGGCCAAGAAGGGCGGAAAGATCGCCGTGTAAGCCATACCACATTTGTAGAGGTTTTACTTGCTTTAAAAAACCTCCCACACCTAAGGTAATGTATAATCGCGTGGATATGGCACGCAAGTTTCTACCGGGCACCGTAAATGTCCGACTACATTACCCCCCTGAACCTGAAACATAAAATGAATGCAATTGTTGTTGTTAACTTGTTTATTGCAGCTTATAATGGTTACAAATAAAGCAATAGCATCACAAATTTCACAAATAAAGCATTTTTTTCACTGCATTCTAGTTGTGGTTTGTCCAAACTCATCAATGTATCTTAA
modifications: in pFLuc; U1_Gua_2 wt in pFLuc
notes: U1 site linked with xpt-guanine aptamer, 110 nt upstream of SV40 early poly(A) in pFLuc
fold increase of luciferase activity upon guanine treatment ([1]; SV40 early poly(A) signal): 2.0 fold

B2: U1_Gua_1: DHFR exon 2 5′ splice site U1 site linked with xpt-guanine aptamer, 149 nt upstream of SV40 early poly(A) in pFLuc (nucleic acid)
DNA: TCATAAAGGCCAAGAAGGGCGGAAAGATCGCCGTGTAAGCCATACCACATTAAGGTAATGTATAATCGCGTGGATATGGCACGCAAGTTTCTACCGGGCACCGTAAATGTCCGACTACATTACTGTAGAGGTTTTACTTGCTTTAAAAAACCTCCCACACCTCCCCCTGAACCTGAAACATAAAATGAATGCAATTGTTGTTGTTAACTTGTTTATTGCAGCTTATAATGGTTACAAATAAAGCAATAGCATCACAAATTTCACAAATAAAGCATTTTTTTCACTGCATTCTAGTTGTGGTTTGTCCAAACTCATCAATGTATCTTAA
modifications: in pFLuc; U1_Gua_1 wt in pFLuc
notes: DHFR exon 2 5′ splice site U1 site linked with xpt-guanine aptamer, 149 nt upstream of SV40 early poly(A) in pFLuc
fold increase of luciferase activity upon guanine treatment ([1]; SV40 early poly(A) signal): 2.4 fold

B3: U1_theo_8_1: sequential stem mutation of U1_theo_8 in pRL-SV40 (nucleic acid)
DNA: TCAAATCGTTCGTTGAGCGAGTTCTCAAAAATGAACAATAATTCTAGAGCGGCCGCTTCGAGCAGACATGATAAGATACATTGATGAGTTTGGACAAACCAAACCCAGGTAAGTGATACCAGCCGAAAGGCCCTTGGCAGCACTTACCTGGACAACTAGAATGCAGTGAAAAAAATGCTTTATTTGTGAAATTTGTGATGCTATTGCTTTATTTGTAACCATTATAAGCTGCAATAAACAAGTTAACAACAAC
modifications: in pRL-SV40; U1_theo_8_1 in pRL-SV40
induction fold of luciferase activity (theophylline treated / untreated) ([2]; 3 mM theophylline, 20 to 24 hours): 1.8 fold

B4: U1_Gua_3: U1 site linked with xpt-guanine aptamer, 74 nt upstream of SV40 early poly(A) in pFLuc (nucleic acid)
DNA: TCATAAAGGCCAAGAAGGGCGGAAAGATCGCCGTGTAAGCCATACCACATTTGTAGAGGTTTTACTTGCTTTAAAAAACCTCCCACACCTCCCCCTGAACCTGAAACATAAAATGAATGCAATTGTAAGGTAATGTATAATCGCGTGGATATGGCACGCAAGTTTCTACCGGGCACCGTAAATGTCCGACTACATTACTGTTGTTAACTTGTTTATTGCAGCTTATAATGGTTACAAATAAAGCAATAGCATCACAAATTTCACAAATAAAGCATTTTTTTCACTGCATTCTAGTTGTGGTTTGTCCAAACTCATCAATGTATCTTAA
modifications: in pFLuc; U1_Gua_3 wt in pFLuc
notes: U1 site linked with xpt-guanine aptamer, 74 nt upstream of SV40 early poly(A) in pFLuc
fold increase of luciferase activity upon guanine treatment ([1]; SV40 early poly(A) signal): 1.7 fold

B5: wtU1_Gua_HBGPA: wild type U1 site with xpt-guanine aptamer in pFLuc_HBGPA (human beta globin polyA sequence) (nucleic acid)
DNA: TCATAAAGGCCAAGAAGGGCGGAAAGATCGCCGTGTAAGGATCCAAGCTTATCGATACCGTCGACCTCGAGGTAATGTATAATCGCGTGGATATGGCACGCAAGTTTCTACCGGGCACCGTAAATGTCCGACTACATTACGGCCCAGATCTAATTCACCCCACCAGTGCAGGCTGCCTATCAGAAAGTGGTGGCTGGTGTGGCTAATGCCCTGGCCCACAAGTATCACTAAGCTCGCTTTCTTGCTGTCCAATTTCTATTAAAGGTTCCTTTGTTCCCTAAGTCCAACTACTAAACTGGGGGATATTATGAAGGGCCTTGAGCATCTGGATTCTGCCTAATAAAAAACATTTATTTTCATTGCAATGATGTATTT
modifications: in pFLuc_HBGPA; wtU1_Gua_HBGPA
fold increase of luciferase activity upon guanine treatment ([1]; human beta globin polyA sequence (pFLuc_HBGPA)): 2.1 fold

B6: mutU1_Gua_HBGPA: mutant U1 site with xpt-guanine aptamer in pFLuc_HBGPA (nucleic acid)
DNA: B5 DNA with G71T, T73G, G77C
modifications: in pFLuc_HBGPA; mutU1_Gua_HBGPA
induction of luciferase activity upon guanine treatment (in words) ([1]; guanine vs untreated, human beta globin polyA sequence): didn't induce luciferase activity

B7: 4 copies of U1-theo_8_1: 4 copies of the U1_theo_8_1 sequence in tandem in the 3′ UTR of pRL-SV40 (nucleic acid)
DNA: TCAAATCGTTCGTTGAGCGAGTTCTCAAAAATGAACAATAATTCTAGAGCGGCCGCTTCGAGCAGACATGATAAGATACATTGATGAGTTTGGACAAACCAAACCCAGGTAAGTGATACCAGCCGAAAGGCCCTTGGCAGCACTTACCTGGACAACTAGAATGCAGTGAAAAAAGAGTTTGGACAAACCAAACCCAGGTAAGTGATACCAGCCGAAAGGCCCTTGGCAGCACTTACCTGGACAACTAGAATGCAGTGAAAAAAATGCGAGTTTGGACAAACCAAACCCAGGTAAGTGATACCAGCCGAAAGGCCCTTGGCAGCACTTACCTGGACAACTAGAATGCAGTGAAAAAAATGCTTTATTTGTGAGAGTTTGGACAAACCAAACCCAGGTAAGTGATACCAGCCGAAAGGCCCTTGGCAGCACTTACCTGGACAACTAGAATGCAGTGAAAAAAATGCTTTATTTGTGAAATTTGTGATGCTATTGCTTTATTTGTAACCATTATAAGCTGCAATAAACAAGTTAACAACAAC
modifications: in pRL-SV40 3′ UTR; 4xU1_theo_8_1 in pRL-SV40
reduction of basal level expression compared to single copy of U1_theo_8_1 ([2]; no theophylline): 83% | change of luciferase activity after theophylline treatment (in words) ([2]; with vs without theophylline): increased the luciferase activity in a dose-dependent manner | maximal induction fold of luciferase activity ([3]; 6 mM theophylline): 4.3 fold | luciferase activity relative to 87-9 SL control vector ([3]; upon theophylline treatment, maximal at 6 mM): 40%
